Data: the supplement of paper PMC10126150
± gives the standard deviation of the averaged measurements.

Tested on: ATP
Assay: switch fluorescence ratio, 500 uM ATP over buffer (Cy3 cluster intensity, sum of 5 cycles each) (fold (ratio)); higher = stronger signal-on switching upon ATP binding; sequences stand for … in TCGTCGGCAGCGTCAGATGTGTATAAGAGACAGTTTTTTTTTTTTTTTTTTTTTTTTT…TC
Conditions: aptamer strand: ATP DNA aptamer (quencher-CACCTGGGGGAGTATTGCGGAGGAAGG + anchor), 100 nM annealed; ATP concentration: 500 uM
In short: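 The quencher-labelled ATP aptamer, at 100 nM, was annealed to Cy3-labelled switching-strand clusters on a modified Illumina MiSeq flow-cell. The clusters were imaged in selection buffer, then after 15 min with 500 uM ATP at 22 °C, and this buffer/ATP cycle ran five times with NaOH stripping and re-annealing between runs. Per-cluster fluorescence ratios, summed target-cycle over summed buffer-cycle Cy3 intensity, were averaged per switch-domain sequence. Clusters outside 100-1000 RFU were excluded.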
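Also: ATP exposure 15 min at 22 °C before imaging.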

Row | Sequence | switch fluorescence ratio
1 | CGTTGTTCGA | 1.02 ± 0.012
2 | TTGCGCTCGT | 0.993 ± 0.011
3 | GAACCTTGAC | 1.61 ± 0.14
4 | CGTGGGGTGG | 1.02 ± 0.045
5 | ATCAGAGCTG | 0.964 ± 0.032
6 | TAAGGCTGTT | 0.953 ± 0.023
7 | AATCTACTGA | 1.013 ± 0.01
8 | ATGGGTCTAT | 1 ± 0.012
9 | CTCGGCGTCG | 1.03 ± 0.019
10 | AGGGGGCGCA | 0.991 ± 0.051
11 | TTTCTTTGGG | 0.998 ± 0.043
12 | GCAGTATTTG | 0.99057 ± 2.4e-05
13 | AATATCCTAT | 1.01 ± 0.03
14 | TTAAAGGCGT | 0.982 ± 0.021
15 | TGAATATTAA | 0.985 ± 0.025
16 | AGGGAAGGAA | 1.01 ± 0.037
17 | TTGTTTATTT | 1.02 ± 0.032
18 | AATTTTTTCG | 0.992 ± 0.025
19 | GCTCGGGGGA | 0.978 ± 0.022
20 | AGGTCGGATG | 1.004 ± 0.0056
21 | TATTGCTGCT | 0.983 ± 0.032
22 | GTGAAAAGGC | 0.9862 ± 0.0032
23 | GAATGGGTAT | 0.979 ± 0.026
24 | TTGTTAGGAA | 1.01 ± 0.02
25 | TTATACGGCG | 1.06 ± 0.0059

Row | Sequence | switch fluorescence ratio
26 | ATCTGTCTAT | 0.98 ± 0.026
27 | TCAAATCGGT | 1.03 ± 0.042
28 | CCTGTTTGTT | 0.967 ± 0.038
29 | CCTTTCGACA | 2.08 ± 0.26
30 | AGGGTGAGGG | 0.984 ± 0.042
31 | TTGGGCGGGG | 1.03 ± 0.043
32 | AATCGGGGCG | 0.905 ± 0.016
33 | GGCGTATGTG | 0.95983 ± 0.00095
34 | ATTTTGATAC | 1.01 ± 0.044
35 | AGCAATTGCT | 1.05 ± 0.023
36 | GTTTTACGCG | 1 ± 0.007
37 | GAACGTGGCA | 0.9956 ± 0.0095
38 | CTGCCTTGTT | 1 ± 0.015
39 | GGTGGTCGAC | 1.03 ± 0.038
40 | TTTCTCGTTT | 1.006 ± 0.0072
41 | CTGATATTTG | 0.998 ± 0.022
42 | ATAGACAGAC | 1.136 ± 0.0095
43 | GGGGTCGTTT | 0.9947 ± 0.0067
44 | CCCCTGGCAT | 1.42 ± 0.022
45 | AGGGAGAGAG | 0.997 ± 0.022
46 | ACTACCCCAA | 1.94 ± 0.14
47 | GTGTTTAATT | 1.03 ± 0.035
48 | AAGTTACGTT | 1.04 ± 0.081
49 | TCATATGAGT | 1 ± 0.051
50 | GTTGTTATGT | 1.01 ± 0.015

Row | Sequence | switch fluorescence ratio
51 | CCATGTGTGC | 1.02 ± 0.027
52 | TTGGGAGGTG | 1.05 ± 0.051
53 | TGTTGCGTGG | 0.992 ± 0.012
54 | TTTATTTGAA | 1.01 ± 0.025
55 | CCAGGTTATC | 1.04 ± 0.032
56 | ATCCTGGGGT | 1.01 ± 0.029
57 | GGAGAAGAGT | 1.04 ± 0.015
58 | AGGAGTACGT | 0.988 ± 0.013
59 | AGAGGTAAT | 1.09 ± 0.12
60 | CAGTTCCATG | 0.9857 ± 0.0091
61 | AGTAATGAGG | 0.985 ± 0.035
62 | GGGGTAATCT | 0.99977 ± 0.00079
63 | TCTATCTTTA | 0.996 ± 0.019
64 | GAAGTCCTGT | 0.998 ± 0.021
65 | AGTGATGTTC | 0.976 ± 0.016
66 | GGTGCGGGGG | 0.987 ± 0.093
67 | TTTATCCTAG | 0.976 ± 0.003
68 | AGTGTGGGGC | 1.03 ± 0.0097
69 | GGGGGATTAT | 0.992 ± 0.044
70 | GAATAGGGTG | 1.08 ± 0.039
71 | CGCATGTACG | 1.14 ± 0.16
72 | TGTGGGGTAG | 1.01 ± 0.029
73 | ACCCGAAGGG | 0.948 ± 0.075
74 | CTTGTCTGAG | 0.9818 ± 0.0096
75 | CTGTAATATT | 1.13 ± 0.029

Row | Sequence | switch fluorescence ratio
76 | GGGGCAAGCG | 1.04 ± 0.028
77 | CCGGGCAAGA | 5.5 ± 1.4
78 | AGGACTGGGG | 1.01 ± 0.037
79 | TCGAGCCGAA | 1.04 ± 0.019
80 | ATTGTTACAG | 1.01 ± 0.016
81 | ACTTCCCAAC | 1.33 ± 0.047
82 | CAAAACAGGT | 1.01 ± 0.032
83 | CTGGAAGTTT | 0.952 ± 0.044
84 | TGGGCTACTC | 1.1 ± 0.044
85 | GTTTATATAT | 1.03 ± 0.035
86 | TCCCATTTTG | 1.01 ± 0.043
87 | TGAGCCGGGA | 1 ± 0.019
88 | GGCCGTAATG | 1.09 ± 0.019
89 | TTGGAAGGGT | 1.01 ± 0.031
90 | GAGATTCTTG | 1 ± 0.02
91 | TATGGTTCGC | 0.997 ± 0.055
92 | TCAGTAGATC | 1.02 ± 0.044
93 | GGTGCTGGGG | 1.01 ± 0.019
94 | AACTCACTTT | 1.09 ± 0.02
95 | GGCGTCAGGG | 1 ± 0.051
96 | TCATTTCTGC | 1.01 ± 0.037
97 | GGGAAAGTTT | 0.996 ± 0.023
98 | GCAGGGTAAA | 0.986 ± 0.02
99 | GGGATATGTA | 1.01 ± 0.041
100 | TCGGCGGCGG | 0.974 ± 0.027

Row | Sequence | switch fluorescence ratio
101 | TTTTTATAGC | 1.01 ± 0.044
102 | TAGCCCTGTG | 1.05 ± 0.014
103 | GCAGGTACGC | 1.05 ± 0.033
104 | AGATGGGTGG | 1.01 ± 0.025
105 | TTCCAGCGGT | 1.03 ± 0.017
106 | AGTGCTGTGC | 0.997 ± 0.012
107 | AATAGACCTT | 1.13 ± 0.17
108 | TACCAGTCGC | 1.03 ± 0.026
109 | AATGGGAATG | 1.013 ± 0.0052
110 | TTCCTGGTGG | 1.05 ± 0.073
111 | AGGCGCGCGG | 0.9507 ± 0.0057
112 | ATTTTGATGT | 0.995 ± 0.051
113 | ATTAGTGGGT | 0.9826 ± 0.005
114 | CGGTTTCCTC | 1.11 ± 0.074
115 | TGCCCCCGGT | 1.08 ± 0.066
116 | GGGGCTAGGG | 1 ± 0.032
117 | AGTAAGCCAC | 1.05 ± 0.082
118 | CCTGGGGGCC | 1 ± 0.013
119 | TCCAGGCTTT | 1.05 ± 0.071
120 | AACTGGGGA | 0.967 ± 0.015
121 | TTGCACCGTT | 1.01 ± 0.038
122 | GCTGGGTGCA | 0.9719 ± 0.0016
123 | TGATTAGTTG | 0.993 ± 0.02
124 | ATCGCTTAAG | 0.991 ± 0.035
125 | TTCAACATTT | 1.04 ± 0.011

Row | Sequence | switch fluorescence ratio
126 | GGGATGGGCA | 1.01 ± 0.055
127 | CTGGGAGTGG | 1.04 ± 0.013
128 | CGCGATATTG | 1.58 ± 0.018
129 | ATGGAGCAGT | 1.6 ± 0.019
130 | TCGGAGGAGC | 1.05 ± 0.026
131 | AGGGATTACG | 1.01 ± 0.038
132 | CCCATTTAGT | 1.04 ± 0.023
133 | GATAGGTAAG | 0.962 ± 0.025
134 | AGGTGAAAAG | 1.01 ± 0.02
135 | GAGGGAGGCT | 1.04 ± 0.015
136 | GCTTAAGGCG | 0.991 ± 0.051
137 | AGTTTGGTGT | 0.997 ± 0.026
138 | TCAGGTCGCA | 0.9894 ± 0.0054
139 | TAAAGAGGGT | 1 ± 0.033
140 | TATTCAGCTA | 1.07 ± 0.099
141 | TCAAGGTCCT | 1.127 ± 0.0091
142 | TTTGCGTTAC | 1.58 ± 0.053
143 | ATAGTTGGGA | 1.018 ± 0.0011
144 | CACTAAGGGA | 0.996 ± 0.014
145 | AAAGGAACAG | 1.03 ± 0.017
146 | TTTAAGATTT | 1.01 ± 0.03
147 | ACATCAAAAT | 1.001 ± 0.0015
148 | TAGGTCTTGC | 1.01 ± 0.033
149 | GCAGGGGTTT | 1.25 ± 0.48
150 | GCCGGGAGGA | 1.01 ± 0.032

Row | Sequence | switch fluorescence ratio
151 | ATCATGAGGT | 0.97829 ± 0.00072
152 | GGTACTGGAG | 1.04 ± 0.034
153 | CCCGGGGGTT | 1.14 ± 0.13
154 | TGCGACCGTT | 1.01 ± 0.033
155 | TGTGTTATTT | 0.999 ± 0.024
156 | TTATAACTCA | 0.997 ± 0.034
157 | CGTGTGGCGT | 1.05 ± 0.016
158 | ATCTAAAAGG | 1.01 ± 0.059
159 | TTTTAAGCTG | 1.05 ± 0.024
160 | GGACTTATGG | 0.9851 ± 0.0091
161 | TTGCGTTAGG | 1.04 ± 0.012
162 | GATTTAAATA | 0.98 ± 0.018
163 | TTAGCGTATG | 1.01 ± 0.031
164 | CCGTGGGGAT | 1.24 ± 0.26
165 | GGGTTTTCAT | 0.993 ± 0.012
166 | TTGTTGAGGC | 1.06 ± 0.1
167 | GCGTTAACGC | 0.9731 ± 0.0096
168 | GTAAATTAGT | 1.02 ± 0.04
169 | AAGTTGGGAA | 1.02 ± 0.042
170 | AAATGTGTAG | 0.977 ± 0.024
171 | AAACCCGGGA | 1.04 ± 0.058
172 | CACTGCTTTT | 0.992 ± 0.023
173 | ACAAAGAGTC | 0.9932 ± 0.0083
174 | CATAAGGTAT | 0.999 ± 0.046
175 | AGCGGGGGGT | 1.03 ± 0.033

Row | Sequence | switch fluorescence ratio
176 | TGAATTAAGT | 1.029 ± 0.003
177 | CGGCTATTAC | 3.64 ± 1.3
178 | GGGGATAAGT | 1.04 ± 0.054
179 | AATTTGGGTT | 1.04 ± 0.053
180 | TTTTAGTTTC | 1.015 ± 0.0022
181 | CACCATCTTG | 0.987 ± 0.019
182 | AGGAATCCGG | 1.03 ± 0.026
183 | GCCGGGATCG | 0.97 ± 0.03
184 | AACTCAGATT | 1.01 ± 0.026
185 | ACTTTTCTCT | 1.02 ± 0.021
186 | TTTTTAGCCA | 1.05 ± 0.024
187 | TTTGCGGGGG | 1.01 ± 0.035
188 | AGTTTTTGTT | 0.987 ± 0.024
189 | AAATTGCGAG | 1.005 ± 0.0033
190 | AGGGTCCGAG | 1.001 ± 0.0045
191 | ATGCCAATAA | 1.01 ± 0.03
192 | CTTACGGGCA | 1.03 ± 0.033
193 | TTTAGAAAAT | 1.01 ± 0.0098
194 | TCCGTTTTGA | 1.001 ± 0.0095
195 | TATTGGGATA | 1.01 ± 0.027
196 | AGGGACTGTG | 1.01 ± 0.073
197 | TTTTGTGCTT | 1.04 ± 0.074
198 | ACGATCAGGA | 1.026 ± 0.0029
199 | AGGAACGGGT | 0.9838 ± 0.0027
200 | GATACTGTGA | 0.995 ± 0.023
